This note sets out measurements from the nanobody polyreactivity screen of Harvey et al. (2022).

This data set can be described thus: yeast display, Sf9 membrane polyspecificity reagent, FACS + sequencing; frameworks hold sequencing errors. The gist of the method:
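Using colony PCR, genes from sorted yeast display clones were amplified, then sequenced on MiSeq at 2 × 250 and filtered by CDR length. The clones had been stained with 10% biotinylated, detergent-solubilized Sf9 membrane reagent for 1 hour at 4 °C and sorted by FACS into low and high (top ~1%) gates on anti-HA and streptavidin fluorescence. Polyreactivity labels come from the gate of origin.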
“QVQLVESGGGLVQAGGRLRLSCAASGFTIRWYTMGWYRQAPGKERELVAAISRGGSTNYADSVKGRFTISRDNAKNTVYLQMNSLKPEDTAVYYCAATVYAFTYPYDYWGQGTQVTVSS”: the “polyreactivity (PSR sort gate)” value is “high polyreactivity”.

Consider “QVQLVESGGGLVQAGGRLRLSCAASGFTLWGYAMGWYRQAPGKERELVASMSWSGGGTNYADSVKGRFTISRDNAKNTVYLQMNSLKPEDPAVYYCAAQYYTVSRYYGVERKFGYWGQGSQVTVSS”, for which the “polyreactivity (PSR sort gate)” value is recorded as “high polyreactivity”.

As for “QVQLVESGGGLVQAGGRLRLSCAASGGIFGQNAMRWYRQAPGKERELVAGISASGGSTYYADSVKGRFTISRDNAKNTVYLQRNSLKPEDTAVYYCAARTKRRRYDYWGQGTQVTVSS”, the “polyreactivity (PSR sort gate)” value is on record as “high polyreactivity”.

For “QVQLVESGGGLVQAGGRLRLSCAASGGIFIKNAMGWYRQAPGKERELVAGISSGGNTYYADSVKGRFTISRDNAKNTVYLQMNSLKPEDTAVYYCAVRYYRRFGPLYDSWGQGTHVTVSS”, the “polyreactivity (PSR sort gate)” value is recorded as “low polyreactivity”.

On to “QVQLVESGGGLVQAGGRLRLSCAASGGIIWAYAMGRYRQAPGKERELVAAISSSTGTTYYADSVKGRFTISRDNAKNTVYLQMNSLKPEETAVYYCAAYAYIGDYVSYYGGDYWGQGTQVTVSS”, for which the “polyreactivity (PSR sort gate)” value is “low polyreactivity”.

Take “QVQLVESGGGLVQAGGRLRLSCAASGGTFSSNAMGWYRQSPGKERELVAAITWSGGSTYYADSVKGRFTISRDNAKNTVYLQMNSLKPEDTAVYYCNARNQWRTVGKYDYWGQGTQVTVSS”: the “polyreactivity (PSR sort gate)” value is “low polyreactivity”.

As to “QVQLVESGGGLVQAGGRLRLSCAASGIIFKYNAMGWYIQAPGKEREFVAAITGSGGSTYYADSVKGRFTISRDNAKNTVYLQMNSLKPEDTAVYYCARPQWRDWYGYWGQGTQVTVSS”, the “polyreactivity (PSR sort gate)” value is “low polyreactivity”.

For “QVQLVESGGGLVQAGGRLRLSCAASGIIFTPYAMGRYRQAPGKERELVAAISWIGGRTYYADSVKGRFTISRDKAKNTVYLQMNSLKPEDTAVYYCAASYRAWSGNYWGQGTQVTVSS”, the “polyreactivity (PSR sort gate)” value is on record as “high polyreactivity”.

“QVQLVESGGGLVQAGGRLRLSCAASGITFYDYAMGWYRQAHGKERELVAVITRRGGSTYYAHSVKGRFTISRDNAKNTVYLQMNSLKPEDTAVYYCNADRTAPERYSRVPSSDSWGQGTQVTVSS”: the “polyreactivity (PSR sort gate)” value is reported as “high polyreactivity”.

For the sequence “QVQLVESGGGLVQAGGRLRLSCAASGITSLDNAMGWYRQAPGKQRELVAGIKSGGSTNYADSVKGRFTISRDNAKNTVYLQMNSLKPEDTAVYYCAADDFIGSGRLVARGRYDYWGQGTQVTVSS”, the “polyreactivity (PSR sort gate)” value is reported as “low polyreactivity”.

In the case of “QVQLVESGGGLVQAGGRLRLSCAASGLIFPAYAMGWYRQAPGKERELVATITWRGGSTYYADSVKGRFTISRDNAKNTVYLQMNSLKPEDTAVDYCATRPRYYYFRYDYWGQGTQVTVSS”, the “polyreactivity (PSR sort gate)” value was “high polyreactivity”.

Turning to “QVQLVESGGGLVQAGGRLRLSCAASGLIFRAYAMGWYRQAPGKERELVAAISRRGGSTYYADSVKGRFTISRDNAKNTVYLQMNSLKPEDTAVYYCAATSRVSKSHLYGYWGQGTQVTVSS”, the “polyreactivity (PSR sort gate)” value is recorded as “high polyreactivity”.

Turning to “QVQLVESGGGLVQAGGRLRLSCAASGLIFWFNTMGWYRQAPGKERELVAAITSGGGSTYYADSVKGRFTISRDNAKNTVYLQMNSLKPEDTAVYYCNAGAGRWRARQWHDYWGQGTQVTVSS”, the “polyreactivity (PSR sort gate)” value is “low polyreactivity”.

For “QVQLVESGGGLVQAGGRLRLSCAASGLIFYVYAMGWYRQEPGKERELVASITWSGGRTYYADSVKGRFTISRDNEKNTVYLQMNSLKPEDTAVYYCATDLIQGAAPFRYDYWGQGTQVTVSS”, the “polyreactivity (PSR sort gate)” value is given as “low polyreactivity”.

Turning to “QVQLVESGGGLVQAGGRLRLSCAASGLTFGGNAMGWYRQAPGKERELVAAISWSDDTTDYADSVKGLFTISRDNAKNTVYFQMNRLKPEDTAVYYCAARLPFEHVDYWGQGTQVTVSS”, the “polyreactivity (PSR sort gate)” value is listed as “low polyreactivity”.

Consider “QVQLVESGGGLVQAGGRLRLSCAASGRIFATNAMGWYRQAPGKERELVATITRSAGRTYYADSVKGRFTISRDNAKNTVYLQMNSLKPEDTAVYYCAADGYSTAVDDTVRYIVEYEFWGQGTQVTVSS”, for which the “polyreactivity (PSR sort gate)” value was “low polyreactivity”.

In the case of “QVQLVESGGGLVQAGGRLRLSCAASGRIFDRYAMGWYRQAPGKERELVAGISFSGGRTYYADSVKGRFTISRDNAKNTVYLQMNSLKPEDTAVYYCNTVTSGFLSYDYWGQGTQVTVSS”, the “polyreactivity (PSR sort gate)” value is given as “high polyreactivity”.

As to “QVQLVESGGGLVQAGGRLRLSCAASGRIFKSNAMGWYRQAPGKERELVATIDVIGTSTYYADSVKGRFTISRDNAKNTVYLQMNSLKPEDTAVYYCAAVGWGGWSDSYDYWGQGTQVTVSS”, the “polyreactivity (PSR sort gate)” value was “low polyreactivity”.

For “QVQLVESGGGLVQAGGRLRLSCAASGRIFKTNAMGWYRQAPGKERELVPAISKRGGRTYYADSVKGRFTISRDNAKNTVYLQMNSLKPEDTAVYYCATRYSGYSLGDYWGQGTQVTVSS”, the “polyreactivity (PSR sort gate)” value is recorded as “high polyreactivity”.

For the sequence “QVQLVESGGGLVQAGGRLRLSCAASGRIFLFYDMGWYRQAPGKERELVATISFRRGSTYYADSVKGRFTISRDNAKNTVYLQMNSLKPEDTAVYYCAKQNKRGYSTSAYYYWGQGTQVTVSS”, the “polyreactivity (PSR sort gate)” value is given as “low polyreactivity”.

Regarding “QVQLVESGGGLVQAGGRLRLSCAASGRIFLGNVMGWYRQAPGKERELVAAISSGGSTNYADSVKGRFTISRDNAKNTVYLQMNSLKPEDTAVYYCAAYFVRDWKLYYYWGQGTQVTVSS”, the “polyreactivity (PSR sort gate)” value was “low polyreactivity”.

Take “QVQLVESGGGLVQAGGRLRLSCAASGRIFRGYAMGWYRQAPGKERELVAGITWGGGRTYYADSVKGRFTISRDNAKNTVYLQLNSLKPEDTAVYYCAAYYSQDSRRKYDYWGQGTQVTVSS”: the “polyreactivity (PSR sort gate)” value is reported as “high polyreactivity”.

With “QVQLVESGGGLVQAGGRLRLSCAASGRIFTYNAMGWYRQAPGKEREFVAAISSGGSTTYADSVKGRFTISRDNAKNTVYLQMNSRKPEDTAVYYCAARGWRFAIIEYEYWGQGTQVTVSS”, the “polyreactivity (PSR sort gate)” value is “low polyreactivity”.

For the sequence “QVQLVESGGGLVQAGGRLRLSCAASGRIFVYYAMGWYRQAPGQERELVAAITYSVDSTYYADSVKGRFTISRDNAKNTVYLQMNSLKPEDTAVYYCATDVDWAYGYQYEYWGQGTQVTVSS”, the “polyreactivity (PSR sort gate)” value was “low polyreactivity”.

Regarding “QVQLVESGGGLVQAGGRLRLSCAASGRIFYGNAMGRYRPAPVKERELVATISSSGGSTTYADSVKGRFTISRDNAKYTVYLQMNSLKPEDSAVYYCADQGYWTGYDYWGQGSQVTVSS”, the “polyreactivity (PSR sort gate)” value was “high polyreactivity”.

On to “QVQLVESGGGLVQAGGRLRLSCAASGRIFYYYAMGWYRQAPGKERELVAAINRSGGSTYYADSVKGRFTISRDNAKNTVYLQMNSLKPEDTAVYSCASYDYWGQGTQVTVSS”, for which the “polyreactivity (PSR sort gate)” value was “high polyreactivity”.

Regarding “QVQLVESGGGLVQAGGRLRLSCAASGRISYYYTMGWYRQAPGKERQLVAAISWSGGTTYYADSVKGRFTISRDNAKNTVYLQMNSLKPEDTAVYYCAAREYYTDVHGTRRYDYWGQGTQVTVSS”, the “polyreactivity (PSR sort gate)” value is listed as “low polyreactivity”.

Regarding “QVQLVESGGGLVQAGGRLRLSCAASGRTFGRYAMGWYRQAPGKERELVAAITGGVITTYADSVKGRFTISRDNAKNTVYLQMNSLKPEDTAVYYCAARYNVFPSPHYYYWGQGTQVTVSS”, the “polyreactivity (PSR sort gate)” value is given as “low polyreactivity”.

“QVQLVESGGGLVQAGGRLRLSCAASGRTFGVYAMGWYRQSPGKEREFVGVISWSDDSTYYADSVKGRFTISRDNAKNTVYLQMNSLKPEDTAVYYCNADDYLVYSGSHYGYWGQGTQVTVSS”: the “polyreactivity (PSR sort gate)” value is given as “low polyreactivity”.

On to “QVQLVESGGGLVQAGGRLRLSCAASGRTFKLYAMGWYRQAPGKERELVAAISGRGGSTYYADSVKGRFTISRDNAKNTVYLQMNSLKPEDTAVYYCNWYGKYEYWGQGTQVTVSS”, for which the “polyreactivity (PSR sort gate)” value was “high polyreactivity”.

Regarding “QVQLVESGGGLVQAGGRLRLSCAASGRTFRYNAMGGSRQAPGKERELVAAISGGDSTYYADSEKGRFTFSRDNAKNTVYLQMNCLKPEDTAVYYCAGRTYRRRVSQSVSRNDYWGQGTQVTVSS”, the “polyreactivity (PSR sort gate)” value is “high polyreactivity”.

Turning to “QVQLVESGGGLVQAGGRLRLSCAASGRTFTSNAMGWYRQAPGKERELVAAIDDGGSTNYADSVKGRFTISRDNAKNTVYLQMNSLKPEDTAVYYCNAPITWQYRGFRRRFDYWGQGTQVTVSS”, the “polyreactivity (PSR sort gate)” value is on record as “low polyreactivity”.

As for “QVQLVESGGGLVQAGGRLRLSCAASGRTFVPYAMGWYRQPPGKERELVAAISYSGDSTYYADSEKGRFTISRDNAKNTVYLQMNSLKPEDTAVYYCAARGGNPFYYWGQGTQVTVSS”, the “polyreactivity (PSR sort gate)” value is given as “low polyreactivity”.

Consider “QVQLVESGGGLVQAGGRLRLSCAASGRTFYINTMGWYRQAPGKERELVAAISSSGDSTYYADSVKGRFTISRDNAKNTVYLQMNSLKPEDTAVYYCATDYGWYDYWGQGTQVTVSS”, for which the “polyreactivity (PSR sort gate)” value is recorded as “low polyreactivity”.

As for “QVQLVESGGGLVQAGGRLRLSCAASGRTFYWYAMGWYRQAPGKETELVAAISSGGSTYYADSVKGRFTISRDNAKNTVYLQMNSLKPEDTAVYYCAAVTPSGAHRSAYHPISDYWGQGTQVTVSS”, the “polyreactivity (PSR sort gate)” value is “low polyreactivity”.

Turning to “QVQLVESGGGLVQAGGRLRLSCAASGRTLATFAMGWSRQAPGKERELVAAITFSGGGSTYYADSVKGRFTISRDNAKNTVYLQMKSLKPEDTADYYCAAGPYYSLFGYGSRDNYRYYYWGQGTQVTVSS”, the “polyreactivity (PSR sort gate)” value is “high polyreactivity”.

For “QVQLVESGGGLVQAGGRLRLSCAASGRTLSRYAMGWYRQAPGKERELVAAINNGGNTNYADSVKGRFTISRDNAKNTVYLQMNSLKPEDTAVYYCAVRWYPRYGSSYDYWGQGTQVTVSS”, the “polyreactivity (PSR sort gate)” value is listed as “high polyreactivity”.

Take “QVQLVESGGGLVQAGGRLRLSCAASGRTSFDYSMGWYRQAPGKDRELVAAITSTGGSTYYADSVKGRFTISRDNAKYTVYLQMNSLKPEDTAVYYCAAVWFTHWGQYQVLEVLYDYWGQGTQVTVSS”: the “polyreactivity (PSR sort gate)” value is “low polyreactivity”.

Turning to “QVQLVESGGGLVQAGGRLRLSCAASGRTYYTYAMGWYRQAPGKERELVAAITWDGGSTYYADSVKGRFTISRDNAKNTVYLQMNSLKPEDTAVYYCADDLYDTYGTFDYWGQGTQVTVSS”, the “polyreactivity (PSR sort gate)” value was “low polyreactivity”.

“QVQLVESGGGLVQAGGRLRLSCAASGSIFDIYAMGLYRQAPGKERELVASIRRRGGSTYYADSVKGRFTISRDNAKNTVYLQMNSLKPEDTAVYYCNARRVWLRTTGTNWPERGYWGQGTQVTVSS”: the “polyreactivity (PSR sort gate)” value is “high polyreactivity”.
